# Results as given in PMC12712897.
# Assays:
# [1] = target: type I interleukin-1 receptor (UniProt P14778); experiment: SPR; IL-1R1 captured on a CM5 chip via a His Capture Kit; various concentrations of IL-1Ra variants and IL-1β flowed as analytes; Biacore T200
# [2] = target: type I interleukin-1 receptor (UniProt P14778); experiment: MST; fluorescently labeled IL-1R1 titrated with serially diluted IL-1Ra variants and IL-1β; Monolith NT.115-pico
# [3] = target: type I interleukin-1 receptor (UniProt P14778)
# [4] = target: type I interleukin-1 receptor (UniProt P14778); remark: listed apart in the source
# UniProt P14778, sequence (P14778 18-336): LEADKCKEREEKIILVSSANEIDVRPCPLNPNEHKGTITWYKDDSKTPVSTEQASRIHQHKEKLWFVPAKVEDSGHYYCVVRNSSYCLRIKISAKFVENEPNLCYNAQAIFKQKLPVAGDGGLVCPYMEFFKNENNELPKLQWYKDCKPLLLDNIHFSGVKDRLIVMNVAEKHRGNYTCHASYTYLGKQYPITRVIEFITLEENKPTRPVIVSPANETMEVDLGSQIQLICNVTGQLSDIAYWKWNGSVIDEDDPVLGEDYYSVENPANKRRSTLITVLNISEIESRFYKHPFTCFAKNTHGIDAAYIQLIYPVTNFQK
Kd [1] [nM],Kd [2] [nM],"reduction of IL-1β mRNA in HMC-3 cells (IL-1β 1 ng/ml + hIL-1Ra 25 ng/ml, 24 h; blocks IL-1β acting on IL-1R1) compared with RD hIL-1Ra WT [3] [%]","reduction of IL-1β mRNA in HMC-3 cells (IL-1β 1 ng/ml + hIL-1Ra 25 ng/ml, 24 h; blocks IL-1β acting on IL-1R1) compared with iPT hIL-1Ra WT [3] [%]","reduction of IL-6 mRNA in HMC-3 cells (IL-1β 1 ng/ml + hIL-1Ra 25 ng/ml, 24 h; blocks IL-1β acting on IL-1R1) compared with RD hIL-1Ra WT [4] [%]","reduction of IL-6 mRNA in HMC-3 cells (IL-1β 1 ng/ml + hIL-1Ra 25 ng/ml, 24 h; blocks IL-1β acting on IL-1R1) compared with iPT hIL-1Ra WT [4] [%]",Substance
0.396,7.52,–,–,–,–,hIL-1Ra E127C (natural protein)
3.5,40.6,–,–,–,–,hIL-1Ra E127D (natural protein)
0.256,4.59,–,–,–,–,hIL-1Ra E127H (natural protein)
0.41,5.54,35,32,–,–,hIL-1Ra E127K (natural protein)
0.281,6.06,–,–,–,–,hIL-1Ra E127N (natural protein)
0.283,3.84,–,–,53,49,hIL-1Ra E127Q (natural protein)
0.248,2.45,–,–,–,–,hIL-1Ra E127S (natural protein)
0.258,4.61,–,–,–,–,hIL-1Ra E127V (natural protein)
